As a reminder, the stoichiometry N is a count of units in the complex or per binding partner.

Experiment [1] deals with salmon Calcitonin (salmon). Put plainly: SEC; Sephadex G50 column at 4 °C, 5 mM phosphate buffer pH 7.4; spontaneously aggregated native sCT (2 mg incubated overnight at room temperature); calibrated with BSA, cytochrome c, aprotinin, somatostatin; absorbance at 280 nm. (In general: Size exclusion chromatography separates by hydrodynamic size, large species first.)
Experiment [2] concerns the target salmon Calcitonin (salmon). Put plainly: cross-linking; PICUP (Ru(bpy)3, ammonium persulfate, 2 s light) then tricine SDS-PAGE, silver stain and densitometry; PFOs-enriched SEC fractions (29th and 30th), 80 uM.
The target in experiment [3] is salmon Calcitonin (salmon). The experiment is described as follows: cross-linking; PICUP (Ru(bpy)3, ammonium persulfate, 2 s light) then tricine SDS-PAGE, silver stain and densitometry; native unfractioned Monomer-enriched sample (powder dissolved in desalted water, 80 uM).

Take salmon Calcitonin (peptide): the stoichiometry N in experiment [1] turned out to be 2. Also, the PFOs% (trimers + tetramers + pentamers + hexamers percentage of the gel lane) in experiment [2] came to 54%; in experiment [3], 16.5%.

The record behind these values is article PMC6435710.
